Reference: US20250320309A1 (SHENGHE CHINA BIOPHARMACEUTICAL, published 2025)

T1: human CD24 (human, UniProt P25063 27-59)
T1 chain (looked up): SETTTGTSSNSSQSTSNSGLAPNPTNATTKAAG


Biological target: T1, human CD24
Test: cell-based or functional assay

| ADCP: phagocytosis of CD24-SKOV3 cells by macrophages, EC50 | ADCP: phagocytosis of MCF-7 cells by macrophages, EC50 | Binder |
| --- | --- | --- |
| 4 pM | 2 pM | 1-D2-IgG4 (bispecific antibody) heavy: not shown light: DIQMTQSPSTLSASVGDRVTITCSASSSVSSMHWYQQKPGKAPKLLIYSTSNLASGVPSRFSGSGSGTEYTLTISSLQPDDFATYYCHHWTSYMYTFGGGTKVEIKRTVAAPSVFIFPPSDEQLKSGTASVVCLLNNFYPREAKVQWKVDNALQSGNSQESVTEQDSKDSTYSLSSTLTLSKADYEKHKVYACEVTHQGLSSPVTKSFNRGECGGGGSGGGGSQVQLQESGPGLVKPSETLSLTCTVSGSSLTSYGVHWVRQPPGKCLEGLGVIWPGGSTNYNSALMSRVTISKDNSKSQVSLKMSSLTAADTAVYYCARVTGTWYFDVWGQGTTVTVSSGGGGSGGGGSGGGGSDIQMTQSPSSLSASLGDRVTISCSASQGISNYLNWYQQKPDGTVKLLIYYTSTLHSGVPSRFSGSGSGTDYTLTISSLQPEDIATYYCQQYSKLPWTFGCGTKLEIK |
| 13 pM | 4 pM | 1-C2-IgG1 (bispecific antibody) heavy: not shown light: DIQMTQSPSTLSASVGDRVTITCSASSSVSSMHWYQQKPGKAPKLLIYSTSNLASGVPSRFSGSGSGTEYTLTISSLQPDDFATYYCHHWTSYMYTFGGGTKVEIKRTVAAPSVFIFPPSDEQLKSGTASVVCLLNNFYPREAKVQWKVDNALQSGNSQESVTEQDSKDSTYSLSSTLTLSKADYEKHKVYACEVTHQGLSSPVTKSFNRGEC |
